How the values were obtained:
[1] = target: HupBMtb (HU, MDP-1, HLPMt) (Mycobacterium tuberculosis H37Rv) (UniProt P9WMK7); assay: agarose EMSA; details: scale: fold higher affinity than for linear pBSK
[2] = target: HupBMtb (HU, MDP-1, HLPMt) (Mycobacterium tuberculosis H37Rv) (UniProt P9WMK7); assay: EMSA
[3] = target: T1, HupBMtb (HU, MDP-1, HLPMt) (Mycobacterium tuberculosis H37Rv, UniProt P9WMK7 3-216); assay: EMSA; 0-300 nM protein; negligible; details: protein: recombinant; tags: His (pET28a, NdeI/HindIII); chain copies: 2; label: 5' 32P; blunt
T1 sequence (P9WMK7 3-216): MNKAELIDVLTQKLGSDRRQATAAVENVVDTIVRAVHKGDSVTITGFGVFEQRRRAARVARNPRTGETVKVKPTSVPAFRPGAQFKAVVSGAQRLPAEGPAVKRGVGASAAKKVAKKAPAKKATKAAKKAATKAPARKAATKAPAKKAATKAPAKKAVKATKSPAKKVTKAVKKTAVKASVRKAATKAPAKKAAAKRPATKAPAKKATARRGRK

[4] = target: T2, HupBMtbN (Mycobacterium tuberculosis H37Rv, UniProt P9WMK7 3-97); assay: EMSA; 10 mM KCl; details: protein: recombinant, tags: His (pET28a, NdeI/HindIII), chain copies: 2, label: 5' 32P, blunt
T2 sequence (P9WMK7 3-97): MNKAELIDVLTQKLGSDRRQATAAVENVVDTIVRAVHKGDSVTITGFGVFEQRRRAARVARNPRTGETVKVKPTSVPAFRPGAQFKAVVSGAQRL

[5] = target: T1, HupBMtb (HU, MDP-1, HLPMt); assay: EMSA; 200 mM KCl; details: protein: recombinant, tags: His (pET28a, NdeI/HindIII), chain copies: 2, label: 5' 32P, blunt
[6] = target: T1, HupBMtb (HU, MDP-1, HLPMt); assay: EMSA; 10 mM KCl; details: protein: recombinant, tags: His (pET28a, NdeI/HindIII), chain copies: 2, label: 5' 32P, blunt
[7] = target: T1, HupBMtb (HU, MDP-1, HLPMt); assay: EMSA; 0-300 nM protein; two complexes; details: protein: recombinant; tags: His (pET28a, NdeI/HindIII); chain copies: 2; label: 5' 32P; blunt
[8] = target: T2, HupBMtbN; assay: EMSA; 0-300 nM protein; single complex; details: protein: recombinant; tags: His (pET28a, NdeI/HindIII); chain copies: 2; label: 5' 32P; blunt
[9] = 48 bp duplex with nick in the lower strand
[10] = duplex with 1 nt gap in the lower strand
[11] = duplex with 2 nt gap in the lower strand

HupBMtb (HU, MDP-1, HLPMt) (Mycobacterium tuberculosis H37Rv), sequence (P9WMK7 3-216): as the sequence (P9WMK7 3-216) above

## pBluescript SK supercoiled
[1]
  binding signal: 1.5

## CTCTGTGACTGGTGTGACCTGGGAGAGAGAAGTTTTTTTAAGAACGTT (double strand) [A1 ds DNA (SH_1+SH_2)]
[2]
  Kd: 42 nM

B1: A6 84% GC DNA (SH_10+SH_11) (dsDNA)
DNA 1: GCCCGGCTGCACCGCGCCACCGCGG
DNA 2: CCGCGGTGGCGCGGTGCAGCCGGGC
[3]
  binding result: no binding

B2: A2 nick DNA (SH_1+SH_3+SH_4) (structured_DNA)
DNA 1: CTCTGTGACTGGTGTGACCTGGGAGAGAGAAGTTTTTTTAAGAACGTT
DNA 2: TCCCAGGTCACACCAGTCACAGAG
DNA 3: AACGTTCTTAAAAAAACTTCTCTC
[4]; [9]
  Kd: 1000 nM
[5]; [9]
  Kd: 65 nM

B3: A3 1-nt gap DNA (SH_1+SH_3+SH_5) (structured_DNA)
DNA 1: B2 DNA 1
DNA 2: TCCCAGGTCACACCAGTCACAGAG
DNA 3: AACGTTCTTAAAAAAACTTCTCT
[4]; [10]
  Kd: 725 nM
[6]; [10]
  Kd: 55 nM

B4: A4 2-nt gap DNA (SH_1+SH_3+SH_6) (structured_DNA)
DNA 1: B2 DNA 1
DNA 2: TCCCAGGTCACACCAGTCACAGAG
DNA 3: AACGTTCTTAAAAAAACTTCTC
[4]; [11]
  Kd: 536 nM
[6]; [11]
  Kd: 60 nM
[5]; [11]
  Kd: 88 nM

B5: A7 64% AT DNA (SH_12+SH_13) (dsDNA)
DNA 1: TCAAATCTAATCGGAGTCGTTTTGA
DNA 2: TCAAAACGACTCCGATTAGATTTGA
[7]
  binding result: binds
[8]
  binding result: binds

Reference: paper PMC2932737, “DNA Clasping by Mtb HU”
